Experimental findings from patent US20200283521A1 are described below.

This experiment deals with human FcRn (human) (UniProt P55899). Briefly: SPR steady state at pH 6, FcRn coupled.
Chain of human FcRn (human) (P55899 24-297 limits assumed, chain 1 of 2): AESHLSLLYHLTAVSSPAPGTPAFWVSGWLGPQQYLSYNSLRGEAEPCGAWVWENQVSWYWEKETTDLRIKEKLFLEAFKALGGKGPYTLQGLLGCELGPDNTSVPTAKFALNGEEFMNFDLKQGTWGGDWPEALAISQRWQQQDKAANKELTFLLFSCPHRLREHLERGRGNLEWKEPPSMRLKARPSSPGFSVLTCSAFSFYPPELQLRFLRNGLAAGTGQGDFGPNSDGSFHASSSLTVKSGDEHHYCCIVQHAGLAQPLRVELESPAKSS
Chain of human FcRn (human) (chain, as listed by the source limits assumed, chain 2 of 2): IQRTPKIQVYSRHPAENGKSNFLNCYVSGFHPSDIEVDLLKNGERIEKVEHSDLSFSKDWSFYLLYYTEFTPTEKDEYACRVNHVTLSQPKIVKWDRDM

isotype control human IgG1 (antibody) came in with a Kd of 1180 nM. isotype control human IgG4 antibody returned a Kd of 2600 nM.

What is called Kd is the free concentration of one partner at which half of the binding sites on the other are occupied at equilibrium, for simple one-to-one binding. A low value points to a tighter complex.
